Measured values as given in article PMC8044227, “Cardiolipin enhances the enzymatic activity of cytochrome bd and cytochrome bo3 solubilized in dodecyl-maltoside” (Scientific Reports, 2021).

Substrate: COc1c(O)c(C)c(CC=C(C)C)c(O)c1OC
Assay: O2 consumption, Clark-type electrode
Format: biochemical, Escherichia coli
Details: no cardiolipin, 0.025% DDM, 50 mM MOPS, 100 mM NaCl, pH 7.5, 37 °C, 10 mM DTT

Protein | Km [µM]
cytochrome bo3 (E. coli) (Escherichia coli K-12) (protein, His-tagged complex overexpressed in E. coli GO105/pJRhisA, Ni-Sepharose-purified in DDM) MFGKLSLDAVPFHEPIVMVTIAGIILGGLALVGLITYFGKWTYLWKEWLTSVDHKRLGIMYIIVAIVMLLRGFADAIMMRSQQALASAGEAGFLPPHHYDQIFTAHGVIMIFFVAMPFVIGLMNLVVPLQIGARDVAFPFLNNLSFWFTVVGVILVNVSLGVGEFAQTGWLAYPPLSGIEYSPGVGVDYWIWSLQLSGIGTTLTGINFFVTILKMRAPGMTMFKMPVFTWASLCANVLIIASFPILTVTVALLTLDRYLGTHFFTNDMGGNMMMYINLIWAWGHPEVYILILPVFGVFSEIAATFSRKRLFGYTSLVWATVCITVLSFIVWLHHFFTMGAGANVNAFFGITTMIIAIPTGVKIFNWLFTMYQGRIVFHSAMLWTIGFIVTFSVGGMTGVLLAVPGADFVLHNSLFLIAHFHNVIIGGVVFGCFAGMTYWWPKAFGFKLNETWGKRAFWFWIIGFFVAFMPLYALGFMGMTRRLSQQIDPQFHTMLMIAASGAVLIALGILCLVIQMYVSIRDRDQNRDLTGDPWGGRTLEWATSSPPPFYNFAVVPHVHERDAFWEMKEKGEAYKKPDHYEEIHMPKNSGAGIVIAAFSTIFGFAMIWHIWWLAIVGFAGMIITWIVKSFDEDVDYYVPVAEIEKLENQHFDEITKAGLKNGN | 56 ± 13
cytochrome bd (E. coli) (Escherichia coli K-12) (protein, CydABX complex, Strep-tag, expressed in E. coli MB43, streptactin-purified in DDM) MLDIVELSRLQFALTAMYHFLFVPLTLGMAFLLAIMETVYVLSGKQIYKDMTKFWGKLFGINFALGVATGLTMEFQFGTNWSYYSHYVGDIFGAPLAIEGLMAFFLESTFVGLFFFGWDRLGKVQHMCVTWLVALGSNLSALWILVANGWMQNPIASDFNFETMRMEMVSFSELVLNPVAQVKFVHTVASGYVTGAMFILGISAWYMLKGRDFAFAKRSFAIAASFGMAAVLSVIVLGDESGYEMGDVQKTKLAAIEAEWETQPAPAAFTLFGIPDQEEETNKFAIQIPYALGIIATRSVDTPVIGLKELMVQHEERIRNGMKAYSLLEQLRSGSTDQAVRDQFNSMKKDLGYGLLLKRYTPNVADATEAQIQQATKDSIPRVAPLYFAFRIMVACGFLLLAIIALSFWSVIRNRIGEKKWLLRAALYGIPLPWIAVEAGWFVAEYGRQPWAIGEVLPTAVANSSLTAGDLIFSMVLICGLYTLFLVAELFLMFKFARLGPSSLKTGRYHFEQSSTTTQPAR | 95 ± 16
